Reference: US20260256782

Tested on: ZF3-KRAB (MR-32054 bicistronic component) (synthetic construct)
Assay: cell_activity
Conditions: 48 h, 0.5 ug/ml, combined effect with ZF9-MQ1, binding not measured directly

Chain of ZF3-KRAB (MR-32054 bicistronic component) (synthetic construct) (chain, as listed by the source): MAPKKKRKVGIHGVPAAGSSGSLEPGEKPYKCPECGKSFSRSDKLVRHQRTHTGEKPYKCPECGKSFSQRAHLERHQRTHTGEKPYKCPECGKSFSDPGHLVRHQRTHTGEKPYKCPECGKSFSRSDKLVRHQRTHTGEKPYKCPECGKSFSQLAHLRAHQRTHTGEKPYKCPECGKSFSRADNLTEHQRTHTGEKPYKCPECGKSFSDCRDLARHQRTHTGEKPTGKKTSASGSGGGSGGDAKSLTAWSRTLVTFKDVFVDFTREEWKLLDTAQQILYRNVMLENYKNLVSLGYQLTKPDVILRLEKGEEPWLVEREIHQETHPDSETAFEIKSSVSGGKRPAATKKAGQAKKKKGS

Substance: MYC upstream anchor (CTCF) ZF3 target site
- activity (% MYC protein reduction) (H1975 cells): 30
- activity (% MYC protein reduction) (PC9 cells): 47
